The results in this text go back to the RNAGym collection of RNA variant scans (doi:10.1093/molbev/msab373).

Sequences and labels used below:
B1: Azoarcus group I ribozyme (parent)
chain: GUGCCUUGCGCCGGGAAACCACGCAAGGGAUGGUGUCAAAUUCGGCGAAACCUAAGCGCCCGCCCGGGCGUAUGGCAACGCCGAGCCAAGCUUCGGCGCCUGCGCCGAUGAAGGUGUAGAGACUAGACGGCACCCACCUAAGGCAAACGCUAUGGUGAAGGCAUAGUCCAGGGAGUGGCGAAAGUCACACAAACCGG

In the series the parent is B1. The experiment in a line: reverse-splicing fitness (ratio to wild type); higher = more active; in vitro selection; Mg2+ level not given. An outline of the steps:
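An in vitro group I ribozyme library with randomized positions was T7-transcribed and gel-purified. In triplicate, 10 pmol RNA in EPPS pH 7.5 was reacted with 50 pmoles of a 30-nt RNA substrate for 1 h at 37 °C across several added MgCl2 levels (1–48 mM), then stopped with EDTA. Products were reverse transcribed from a substrate-complementary primer, PCR-amplified and sequenced (HiSeq 4000). Fitness is a variant's read proportion after selection over that before, normalised to wild type.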
Consider C82G A111G A120G A145U C150U C169A U176G, for which the reverse-splicing fitness came to 0.00619.
As for C82G A111G A120G A145U C150U C169A U176C, the reverse-splicing fitness came to 0.0159.
With C82G A111G A120G A145U C150U C169A U176A, the reverse-splicing fitness came out at 0.0154.
As for C82G A111G A120G A145G C150A C169A U176A, the figure is 0.0204; as for C82G A111G A120G A145G C150A C169A U176G, 0.00774; as for C82G A111G A120G A145G C150A C169A U176C, 0.0231.
In the case of C82G A111G A120G C150G C169U U176G, the reverse-splicing fitness was determined as 0.00715.
Turning to C82G A111G A120G C150G C169U U176A, the reverse-splicing fitness stood at 0.0119.
Turning to C82G A111G A120G C150G C169U U176C, the reverse-splicing fitness came out at 0.0158.
Consider C82G A111G A120G C150U C169A U176A, for which the reverse-splicing fitness was 0.0193.
Next, C82G A111G A120G C150U C169A U176G: 0.00607; C82G A111G A120G C150U C169A U176C: 0.0197.
With C82G A111G A120G C150G C169G U176A, the reverse-splicing fitness came to 0.00837.
For C82G A111G A120G C150G C169G U176G, the reverse-splicing fitness worked out at 0.0053.
Consider C82G A111G A120G C150G C169G U176C, for which the reverse-splicing fitness was 0.00628.
Next, C82G A111G A120G C150A C169G U176G: 0.00621.
Take C82G A111G A120G C150A C169G U176C: the reverse-splicing fitness amounted to 0.0263.
For C82G A111G A120G C150A C169G U176A, the reverse-splicing fitness was 0.0239.
Next, C82G A111G A120U A145G C169U: 0.00538; C82G A111G A120U A145G C169A: 0.00466.
As for C82G A111G A120U A145G C169G, the reverse-splicing fitness came to 0.00538.
For C82G A111G A120U A145G C150A C169G U176G, the reverse-splicing fitness was 0.00219.
Turning to C82G A111G A120U A145G C150A C169G U176A, the reverse-splicing fitness was determined as 0.0128.
With C82G A111G A120U A145G C150A C169G U176C, the reverse-splicing fitness is 0.00625.
Take C82G A111G A120U A145C C150A: the reverse-splicing fitness worked out at 0.00572.
For C82G A111G A120U A145C C150G, the reverse-splicing fitness was found to be 0.00878.
Next, C82G A111G A120U A145C C150U: 0.0153; C82G A111G A120U A145C C150G C169A: 0.00256; C82G A111G A120U A145C C150G C169G: 0.0027.
For C82G A111G A120U A145C C150G C169U, the reverse-splicing fitness is 0.00296.
For the variant C82G A111G A120G C150A C169A U176G, the reverse-splicing fitness is 0.00698.
As for C82G A111G A120G C150A C169A U176A, the reverse-splicing fitness is 0.0233.
Regarding C82G A111G A120G C150A C169A U176C, the reverse-splicing fitness is 0.0216.
As for C82G A111G A120G A145G C169U U176A, the figure is 0.0188.
For C82G A111G A120G A145G C169U U176G, the reverse-splicing fitness came out at 0.00529.
Turning to C82G A111G A120G A145G C169U U176C, the reverse-splicing fitness amounted to 0.019.
Regarding C82G A111G A120G A145U C150G C169A U176C, the reverse-splicing fitness was found to be 0.0133.
Consider C82G A111G A120G A145U C150G C169A U176A, for which the reverse-splicing fitness was 0.0118.
With C82G A111G A120G A145U C150G C169A U176G, the reverse-splicing fitness amounted to 0.00555.
As to C82G A111G A120G C150G C169A U176A, the reverse-splicing fitness was 0.0118.
C82G A111G A120G C150G C169A U176C: the reverse-splicing fitness came to 0.0135.
As to C82G A111G A120G C150G C169A U176G, the reverse-splicing fitness worked out at 0.00685.
Turning to C82G A111G A120G A145G C150A, the reverse-splicing fitness worked out at 0.0101.
Regarding C82G A111G A120G A145G C150G, the reverse-splicing fitness was determined as 0.00815.
With C82G A111G A120G A145G C150U, the reverse-splicing fitness was found to be 0.0167.
Next, C82G A111G A120G A145U C150U U176C: 0.0212; C82G A111G A120G A145U C150U U176A: 0.0125; C82G A111G A120G A145U C150U U176G: 0.00626.
Consider C82G A111G A120G A145G C150G U176A, for which the reverse-splicing fitness came to 0.00718.
As to C82G A111G A120G A145G C150G U176G, the reverse-splicing fitness worked out at 0.00608.
Consider C82G A111G A120G A145G C150G U176C, for which the reverse-splicing fitness was found to be 0.0114.
Turning to C82G A111G A120U A145C C150A C169U U176G, the reverse-splicing fitness worked out at 0.0019.
On to C82G A111G A120U A145C C150A C169U U176C, for which the reverse-splicing fitness is 0.00238.
As for C82G A111G A120U A145C C150A C169U U176A, the figure is 0.00266; as for C82G A111G A120G A145U C150G C169U U176C, 0.0149; as for C82G A111G A120G A145U C150G C169U U176A, 0.0117.
Turning to C82G A111G A120G A145U C150G C169U U176G, the reverse-splicing fitness was 0.00523.
Next, C82G A111G A120U A145G C150U C169G: 0.00707; C82G A111G A120U A145G C150U C169A: 0.00681; C82G A111G A120U A145G C150U C169U: 0.00611.
Turning to C82G A111G A120U A145C C150G C169U U176C, the reverse-splicing fitness is 0.00238.
In the case of C82G A111G A120U A145C C150G C169U U176A, the reverse-splicing fitness amounted to 0.00286.
In the case of C82G A111G A120U A145C C150G C169U U176G, the reverse-splicing fitness stood at 0.00221.
As for C82G A111G A120G U176C, the figure is 0.0217; as for C82G A111G A120G U176G, 0.00869; as for C82G A111G A120G U176A, 0.0172.
Turning to C82G A111G A120G A145G U176G, the reverse-splicing fitness worked out at 0.00696.
On to C82G A111G A120G A145G U176A, for which the reverse-splicing fitness amounted to 0.0129.
On to C82G A111G A120G A145G U176C, for which the reverse-splicing fitness was 0.0204.
With C82G A111G A120G C169A U176G, the reverse-splicing fitness was determined as 0.00429.
In the case of C82G A111G A120G C169A U176A, the reverse-splicing fitness amounted to 0.022.
As for C82G A111G A120G C169A U176C, the reverse-splicing fitness is 0.0232.
On to C82G A111G A120G A145G C150A C169U U176C, for which the reverse-splicing fitness turned out to be 0.0177.
In the case of C82G A111G A120G A145G C150A C169U U176A, the reverse-splicing fitness stood at 0.0177.
Take C82G A111G A120G A145G C150A C169U U176G: the reverse-splicing fitness stood at 0.00809.
Next, C82G A111G A120G A145U C150A C169G: 0.00924.
For C82G A111G A120G A145U C150A C169A, the reverse-splicing fitness is 0.0096.
As for C82G A111G A120G A145U C150A C169U, the reverse-splicing fitness came out at 0.00794.
C82G A111G A120U A145C C150A C169G U176C: the reverse-splicing fitness came out at 0.00215.
For C82G A111G A120U A145C C150A C169G U176G, the reverse-splicing fitness was determined as 0.0019.
For the variant C82G A111G A120U A145C C150A C169G U176A, the reverse-splicing fitness came out at 0.00277.
Turning to C82G A111G A120G A145U C150A C169G U176A, the reverse-splicing fitness worked out at 0.017.
On to C82G A111G A120G A145U C150A C169G U176G, for which the reverse-splicing fitness amounted to 0.00454.
